# US20200062827A1
# pKd: −log10 of the molar value.
# Experiments:
# [1] = target: therapeutic human IgG1 (Bristol-Myers Squibb) (human); assay: affinity precipitation: 5 mM C12-Z33 + 20 µM IgG1, 0.6 M Na2SO4, centrifugation, A280 of supernatant
# [2] = target: therapeutic human IgG1 (Bristol-Myers Squibb) (human); assay: ITC, 15 C, PBS pH 7.4, reported per ligand
# [3] = target: therapeutic human IgG1 (Bristol-Myers Squibb) (human); assay: ITC, 15 C, PBS pH 7.4, reported per IgG1
percent IgG1 removed from the supernatant [1] [%],-TΔS° (kcal · mol^-1) [2],pKd [2],ΔG° (kcal · mol^-1) [2],ΔH° (kcal · mol^-1) [2],-TΔS° (kcal · mol^-1) [3],ΔG° (kcal · mol^-1) [3],ΔH° (kcal · mol^-1) [3],Substance
> 60,–,–,–,–,–,–,–,C12-Z33 immuno-amphiphile (peptide)
–,13.6,7.22,-9.5,-23.1,43.4,-10,-53.4,Z33 peptide
